Data as given in US20060240053A1 (L OREAL, published 2006).

Target: the molecule itself
Test: BS3 chemical crosslinking, then gel filtration and SDS-PAGE (self-association)
Method: A study of the crosslinking using BS3 (Pierce) is carried out on activated SASPase (SEQ ID NO: 6), obtained by acidification and purification by exclusion chromatography (gel filtration) of the recombinant fusion protein GST-SASPase Δ1-84.
1 μg of BS3 in 60 μl of 50 mM phosphate buffer, pH 7, containing 150 mM NaCl, 0.1% TX100 and 5 mM EDTA is added to the activated SASPase (SEQ ID NO: 6) obtained in example III, placed in ice. A control sample free of BS3 is also prepared. After 90 min, 2 μl of 1 M Tris-HCl, pH 8, are introduced into the reaction media in order to stop the reaction. The products obtained are then analyzed by gel filtration and by SDS-PAGE electrophoresis.

B1: activated SASPase (SEQ ID NO: 6) (enzyme)
chain: ANSMGKGYYLKGKIGKVPVRFLVDSGAQVSVVHPNLWEEVTDGDLDTLQPFENVVKVANGAEMKILGVWDTAVSLGKLKLKAQFLVANASAEEAIIGTDVLQDHNAILDFEHRTCTLKGKKFRLLPVGGSLEDEFDLE
notes: also called 12 kD SASPase
B1: binds.
